Tests used:
Format in all cases: cell-based, Rat
[1] = tested on: anti-TNP IgE labelled RBL2H3-hGB cells; experiment: IgE-allergen sensor, granzyme B release (Example 16); settings: substrate 1 uM
Description: This example describes the use of the sensor for testing modulators of mast cells granule exocytosis widely used to find novel anti-allergic compounds as illustrated in FIG. 1. RBL2H3 were stably transfected with human granzyme B under the control of hCMV-MoLV5′LTR chimeric promoter as described in example 3. A mouse IgE monoclonal antibody against trinitrophenyl hapten was purified from IgELb4 hybridoma purchased from ATCC (TIB-141). TNP-N-hydroxysuccinimide esther was purchased from Biosearch Technologies Inc and conjugated to bovine serum albumin (BSA) using a standard protocol. Conjugation was determined at pH 7.0 by measuring TNP absorbance at 348 nm using 15400 units per mol per 10 mm light pass length as the extinction coefficient of TNP. Molar ratio of TNP to BSA in the TNP-BSA conjugate was calculated assuming the molecular weight of BSA is 60000. Sensor cells were cultivated as adherent cells for 48 hours in 6 well plates and then washed with HBSS and harvested by pippeting. 500.000 cells were labelled with anti-TNP IgE at 1 ug/ml_in HBSS for 60 minutes at 37 Celsius degrees, washed with 10 mL of HBSS, centrifuged and pellet was resuspended in 1 mL of HBSS. In a black wall 384 well plate 10 uL of serial dilutions of TNP-BSA in HBSS were added each containing the FRET-based granzyme B substrate FAM-[…]TAMRA (FAM-[…]-TAMRA) at 1 uM final concentration whose cleavage was detected by fluorescence using excitation at 485 nm and emission at 535 nm. Dilutions of TNP-BSA tested were: 1 ug/mL, 1 ng/mL, 1 pg/mL and 1 fg/mL. To each well 10 uL (5000 cells) of anti-TNP IgE labelled cells were added and plates were incubated at 37 Celsius degrees in a BMG-Labtech microplate fluorimeter. Microplate was read at 0, 15, 30, 45 and 60 minutes. The following controls were included: (1) wells with anti-TNP IgE labelled cells plus granzyme B substrate but without TNP-BSA; (2) wells with non-labelled cells plus granzyme B substrate and TNP-BSA at 1 ug/ml_; (3) wells with granzyme B substrate and TNP-BSA at 1 ug/ml_but no cells. Each well was included by triplicate.

RBL-2H3 cells [2] = experiment: Ionomycin-induced release of granule stored protease reporters from stable cell lines (Example 5); settings: stable RBL-2H3, 10 uM ionomycin 1 hour, supernatant equivalent to 100.000 cells, AMC substrate
Description: As either tryptase-like enzymes, chymase-like enzymes, elastase-like enzymes or asp-ase like enzymes are useful for the methods of the present invention we selected human granzyme A (tryptase-like enzyme); human granzyme B (Asp-ase-like enzyme); human chymase (chymase-like enzyme) and human proteinase 3 (elastase-like enzyme) for further examples. Vectors were developed for stable expression of human granzyme A, human granzyme B, human chymase and human proteinase 3 under the control of hCMV-MoMLV5′LTR chimeric promoter. A hygromycin resistance cassette was included in the vector backbone for selection of stable populations of cells. The vector also included an IRES-NGFR cassette cloned downstream of granule stored protease reporter and thus, under the control of hCMV-MoMLV5′LTR promoter for flow cytometry and/or selection by MACS of stable cells expressing either human granzyme A or human granzyme B or human chymase or human proteinase 3. Each vector was individually electroporated using a microporator (Digital Bio Technology, South Korea) into RBL-2H3 and after 48 hours hygromycin at 1500 ug/mL was added to culture for selection. After selection for about 2 weeks cells were analysed by flow cytometry (Guava Technologies, USA) with an antibody against NGFR coupled to FITC. Positive population where magnetically separated by MACS using anti-NGFR-MACS sup.R (Miltenyi Biotec, Germany). Sorted populations were again analysed again by flow cytometry to check the sorting efficiency. Percentage of NGFR positive cells was always higher than 65 percent. Cells were seeded the night before experiment in 24 well microplates at 650.000 cells per well in 800 microliters of complete cell culture medium. Next day cells were washed with HBSS buffer and were treated with 10 uM ionomycin for 1 hour at 37 Celsius degrees in 200 uL of HBSS buffer and after centrifugation at 400 g for 5 minutes supernatants were analysed for activity with specific fluorescent substrates. Controls of cells incubated with HBSS buffer only were included. Fluorescent substrates were: VANR-AMC for granzyme A; PEEI-AMC for human neutrophil elastase; PTSY-AMC for human chymase; VADC-AMC for human proteinase 3 and IEPD-AMC for human granzyme B. Released AMC was measured by excitation at 360 nm and emission at 460 nm in a BMG Labtech microplate fluorimeter in 96 well microplates using 125 microliters of supernatant and 125 microliters of specific substrate at 400 micromol per liter in HBSS buffer. Microplates were incubated at 37 Celsius degrees on the reader and were kinetically read at 0, 15, 30, 45 and 60 minutes. Control wells with substrate only in HBSS buffer were included to subtract autofluorescence of substrates to both cells treated with ionomycin and to cells treated with HBSS buffer only. Autofluorescence of peptide substrates in HBSS buffer was about 3000 while fluorescence of cells treated with HBSS buffer only for 60 minutes at 37 Celsius degrees was about 5000, that is basal release in the absence of exocytosis modulator was about 2000. In contrast, fluorescence of ionomycin-induced release of human granzymes A and B was about 20.000 for a signal to background of 10 when using the supernatant equivalent to 100.000 cells; fluorescence of ionomycin-induced release of human chymase was about 30.000 for a signal to background of 15 when using the supernatant equivalent to 100.000 cells and fluorescence of ionomycin-induced release of human proteinase 3 was about 12.000 for a signal to background of 6 when using the supernatant equivalent to 100.000 cells. Thus, tryptase-like enzymes, chymase-like enzymes, elastase-like enzymes or asp-ase like enzymes can be stably expressed into granules of hemopoyetic cells with professional regulated exocytosis and such granule stored proteases are released by exocytosis modulators to produce sensors with good signal to background ratios using specific AMC-coupled peptide substrates. […]

RBL-2H3 cells [3] = experiment: Activity of granule stored protease reporters released by ionomycin, transient transfection (Example 4); settings: transiently transfected RBL-2H3, 650.000 cells, 10 uM ionomycin 1 hour, supernatant
Description: Vectors were developed to express human granzyme A, M, H and K and human neutrophil elastase, human chymase, human cathepsin G and human proteinase 3 under the control of hCMV-MoMLV5′LTR chimeric promoter and RBL-2H3 cells were individually transfected by electroporation using a microporator (Gentelbio, South Korea) with the above plasmids and also with human granzyme B plasmid as control and with cytosolically truncated hNGFR receptor as a surface tag for determination of the percentage of transfection by flow cytometry with a anti-hNGFR monoclonal antibody conjugated to FITC (Miltenyi Biotec, Germany). After 48 hours cells were harvested by pipetting, washed with HBSS buffer and counted. 650.000 cells in 200 microliters of HBSS buffer were treated in suspension with 10 uM ionomycin for 1 hour and after centrifugation at 400 g for 5 minutes the supernatants were analysed for activity with specific fluorescent substrates. Controls of cells incubated with HBSS buffer only were included. Fluorescent substrates were specific tetrapeptides conjugated to 7-Amido-4-Methylcoumarin (AMC) and were custom synthesized by a custom peptide supplier. Specific substrates were: VANR-AMC for granzyme A; KVPL-AMC for granzyme M; PTSY-AMC for granzyme H; YRFK-AMC for granzyme K; PEEI-AMC for human neutrophil elastase; PTSY-AMC for human chymase; PTSY-AMC for human cathepsin G; VADC-AMC for human proteinase 3 and IEPD-AMC for human granzyme B. Released AMC was measured by excitation at 360 nm and emission at 460 nm in a BMG Labtech microplate fluorimeter in 96 well microplates using 125 microliters of supernatant and 125 microliters of specific substrate at 400 micromol per liter in HBSS buffer. Microplates were incubated at 37 Celsius degrees on the reader and were kinetically read at 0, 15, 30, 45 and 60 minutes. Percentage of transient electroporation measured using truncated hNGFR tag and anti-hNGFR-FITC antibody was about 60 percent.

Row | Molecule | Fluorescence after 30 minutes at 37° C. ([1]; TNP-BSA 1 pg/mL, 5000 cells with anti-TNP IgE) | Fluorescence after 30 minutes at 37° C. ([1]; TNP-BSA 1 ng/mL, 5000 cells with anti-TNP IgE) | Fluorescence after 30 minutes at 37° C. ([1]; TNP-BSA 1 ug/mL, 5000 cells with anti-TNP IgE) | Fluorescence after 30 minutes at 37° C. ([1]; TNP-BSA 1 ug/mL, 5000 cells without anti-TNP IgE (non-labelled)) | Fluorescence after 30 minutes at 37° C. ([1]; TNP-BSA 1 fg/mL, 5000 cells with anti-TNP IgE) | fluorescence of ionomycin-induced release (RBL-2H3 cells [2]) | signal to background (RBL-2H3 cells [2]) | enzymatic activity of released reporter with specific AMC substrate (RBL-2H3 cells [3])
1 | TNP-BSA: trinitrophenyl hapten conjugated to bovine serum albumin, model allergen | 35884 | 34556 | 30942 | 2935 | 29826 | – | – | –
2 | human granzyme A: Tryptase-like serine protease (GZMA, NM_006144) used as granule stored reporter (protein, UniProt P12544 29-262, looked up) Granzyme A: IIGGNEVTPHSRPYMVLLSLDRKTICAGALIAKDWVLTAAHCNLNKRSQVILGAHSITREEPTKQIMLVKKEFPYPCYDPATREGDLKLLQLMEKAKINKYVTILHLPKKGDDVKPGTMCQVAGWGRTHNSASWSDTLREVNITIIDRKVCNDRNHYNFNPVIGMNMVCAGSLRGGRDSCNGDSGSPLLCEGVFRGVTSFGLENKCGDPRGPGVYILLSKKHLNWIIMTIKGAV | – | – | – | – | – | about 20.000 | 10 | higher activity than granzyme K
3 | neutrophil elastase: Elastase-like serine protease (ELA2, NM_001972) used as granule stored reporter (protein, UniProt P08246 30-267, looked up) Neutrophil elastase: IVGGRRARPHAWPFMVSLQLRGGHFCGATLIAPNFVMSAAHCVANVNVRAVRVVLGAHNLSRREPTRQVFAVQRIFENGYDPVNLLNDIVILQLNGSATINANVQVAQLPAQGRRLGNGVQCLAMGWGLLGRNRGIASVLQELNVTVVTSLCRRSNVCTLVRGRQAGVCFGDSGSPLVCNGLIHGIASFVRGGCASGLYPDAFAPVAQFVNWIDSIIQRSEDNPCPHPRDPDPASRTH | – | – | – | – | – | – | – | equivalent activity that was higher than that of human granzyme M
4 | human chymase: Chymase-like serine protease (CMA1, NM_001836) used as granule stored reporter (protein, UniProt P23946 22-247, looked up) Chymase: IIGGTECKPHSRPYMAYLEIVTSNGPSKFCGGFLIRRNFVLTAAHCAGRSITVTLGAHNITEEEDTWQKLEVIKQFRHPKYNTSTLHHDIMLLKLKEKASLTLAVGTLPFPSQFNFVPPGRMCRVAGWGRTGVLKPGSDTLQEVKLRLMDPQACSHFRDFDHNLQLCVGNPRKTKSAFKGDSGGPLLCAGVAQGIVSYGRSDAKPPAVFTRISHYRPWINQILQAN | – | – | – | – | – | about 30.000 | 15 | highest activity
5 | human proteinase 3: Elastase-like serine protease (PRTN3, NM_002777) used as granule stored reporter (protein, UniProt P24158 28-248, looked up) Myeloblastin: IVGGHEAQPHSRPYMASLQMRGNPGSHFCGGTLIHPSFVLTAAHCLRDIPQRLVNVVLGAHNVRTQEPTQQHFSVAQVFLNNYDAENKLNDVLLIQLSSPANLSASVATVQLPQQDQPVPHGTQCLAMGWGRVGAHDPPAQVLQELNVTVVTFFCRPHNICTFVPRRKAGICFGDSGGPLICDGIIQGIDSFVIWGCATRLFPDFFTRVALYVDWIRSTLR | – | – | – | – | – | about 12.000 | 6 | equivalent activity that was higher than that of human granzyme M

Reference: patent publication US9347942B2, “Ultrasensitive cell based sensors and uses thereof” (CANVAX BIOTECH SL, priority 2010, dated 2016)
